Test [1] deals with conductin amino acids Ala342-Arg465 fused to Lex-A (vector BTM 116) (UniProt P0A7C2). The test can be described thus: yeast 2-hybrid, β-galactosidase reporter; percent of wild type β-catenin.
For test [2], the target named is human APC amino acids Ser1259-Asp1400 (APC 20 amino acid repeats) fused to Lex-A (vector BTM 116) (human). The description is as above.
Test [3] concerns the target human APC amino acids His1012-Glu1215 (APC 15 amino acid repeats) fused to Lex-A (vector BTM 116) (human). The test is described as above.
Test [4] concerns the target T1, LEF-1 amino acids 1-99 fused to Lex-A (vector BTM 116) (UniProt P0A7C2 1-202; P27782 1-99).
T1 construct: Order of the fusion follows the vector; also called LEF-1/TCF-4
The description is as above. Here is the method:
4. Preparation and testing of mutants of β-catenin modulating the interaction with LEF-1, APC, conductin or E-cadherin The mutagenesis of β-catenin in the armadillo repeats 3–8 was carried out by means of the "mutagenesis kit" of the company Clontech according to the producer's record and the mutants were checked by sequencing (FIG. 5). In all mutants the original amino acid was substituted by alanine. For analyzing the interactions the cDNA of human β-catenin (armadillo repeat 3 up to the C-terminal end of the protein) coding for the amino acids Leu218–Leu7 µl or its mutants was cloned into the fusion vector for the activation domain of Gal-4 (pGAD424, Clontech). The cDNA for the binding domains of the interaction partners was cloned into the Lex-A fusion vector BTM 116. To this end, the cDNA of LEF-1 for the amino acids 1–99, conductin for the amino acids Ala342–ARG465; of human APC for the amino acids His1012–Glu1215 (APC 15 amino acid repeats) and for the amino acids Ser1259Asp 1400 (APC 20 amino acid repeats) and E-cadherin for the amino acids Gin773–Asp884 (cytoplasmatic domain) were amplified with the respective primers PCR. The interaction of the Lex-A hybrids with β-catenin and its mutants was quantified by means of the β-galactosidase reporter activity in the yeast 2-hybrid system (report: "Matchmaker". Clontech) (Tab. 2 and FIG. 6).

For test [5], the target named is T2, E-cadherin (Mus musculus, UniProt P09803).
T2 construct: E-cadherin for the amino acids Gin773–Asp884 (cytoplasmatic domain); expressed in transfected cells; host or cells: yeast (two-hybrid, Matchmaker, Clontech)
The test can be described thus: yeast 2-hybrid: interaction of β-catenin mutants with E-cadherin. It counts as binding. Particulars: alanine mutants. As to the method: The mutagenesis of β-catenin in the armadillo repeats 3–8 was carried out by means of the “mutagenesis kit” of the company Clontech according to the producer's record and the mutants were checked by sequencing (FIG. 5). In all mutants the original amino acid was substituted by alanine. For analyzing the interactions the cDNA of human β-catenin (armadillo repeat 3 up to the C-terminal end of the protein) coding for the amino acids Leu218–Leu7 μl or its mutants was cloned into the fusion vector for the activation domain of Gal-4 (pGAD424, Clontech). The cDNA for the binding domains of the interaction partners was cloned into the Lex-A fusion vector BTM 116. To this end, the cDNA of LEF-1 for the amino acids 1–99, conductin for the amino acids Ala342–ARG465; of human APC for the amino acids His1012–Glu1215 (APC 15 amino acid repeats) and for the amino acids Ser1259Asp 1400 (APC 20 amino acid repeats) and E-cadherin for the amino acids Gin773–Asp884 (cytoplasmatic domain) were amplified with the respective primers PCR. The interaction of the Lex-A hybrids with β-catenin and its mutants was quantified by means of the β-galactosidase reporter activity in the yeast 2-hybrid system (report: “Matchmaker”. Clontech) (Tab. 2 and FIG. 6).

The target in test [6] is T3, APC (20 amino acid repeats) (Homo sapiens, UniProt P25054).
T3 construct: for the amino acids Ser1259Asp 1400 (APC 20 amino acid repeats); expressed in transfected cells; host or cells: yeast (two-hybrid, Matchmaker, Clontech)
T3 sequence (P25054 1253-1394 limits assumed): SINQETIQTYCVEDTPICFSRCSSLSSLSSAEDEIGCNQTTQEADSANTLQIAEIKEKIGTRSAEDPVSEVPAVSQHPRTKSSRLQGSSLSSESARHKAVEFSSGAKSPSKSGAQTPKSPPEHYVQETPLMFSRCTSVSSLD
The test is described as follows: yeast 2-hybrid: interaction of β-catenin mutants with APC 20 amino acid repeats. In kind it is binding. The settings on record: yeast 2-hybrid, alanine mutants. In outline:
(§1)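 Alanine-substituted human β-catenin mutants (armadillo repeat 3 to C-terminus, from Leu218) fused to Gal4 activation domain; partner fragments fused to LexA: E-cadherin Gln773–Asp884, APC His1012–Glu1215 or Ser1259–Asp1400, conductin Ala342–Arg465. Interaction quantified by β-galactosidase reporter activity in yeast.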

The target of test [7] is T4, conductin (Mus musculus, UniProt O88566).
T4 construct: conductin for the amino acids Ala342–ARG465; expressed in transfected cells; host or cells: yeast (two-hybrid, Matchmaker, Clontech)
The test can be described thus: yeast 2-hybrid: interaction of β-catenin mutants with conductin. In kind it is binding. Particulars: yeast 2-hybrid, alanine mutants. In outline: as §1

The target in test [8] is T5, APC (15 amino acid repeats) (Homo sapiens, UniProt P25054).
T5 construct: of human APC for the amino acids His1012–Glu1215 (APC 15 amino acid repeats); expressed in transfected cells; host or cells: yeast (two-hybrid, Matchmaker, Clontech)
T5 sequence (P25054 1006-1209 limits assumed): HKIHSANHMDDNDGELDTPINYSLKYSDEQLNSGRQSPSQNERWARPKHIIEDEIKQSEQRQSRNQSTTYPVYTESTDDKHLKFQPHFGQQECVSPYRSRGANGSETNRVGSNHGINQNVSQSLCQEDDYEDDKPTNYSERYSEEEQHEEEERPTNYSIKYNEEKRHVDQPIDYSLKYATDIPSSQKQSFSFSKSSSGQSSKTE
The test can be described thus: yeast 2-hybrid: interaction of β-catenin mutants with APC 15 amino acid repeats. It counts as binding. The settings on record: yeast 2-hybrid, alanine mutants. In outline:
as §1

In test [9] the target is T6, LEF-1 (Mus musculus, UniProt P27782).
T6 construct: the cDNA of LEF-1 for the amino acids 1–99; expressed in transfected cells; host or cells: yeast (two-hybrid, Matchmaker, Clontech)
The test is described as follows: yeast 2-hybrid: interaction of β-catenin mutants with LEF-1. It counts as binding. Particulars: yeast 2-hybrid, alanine mutants.

Changes are numbered by the printed parent chain.

T6 sequence (P27782 1-99): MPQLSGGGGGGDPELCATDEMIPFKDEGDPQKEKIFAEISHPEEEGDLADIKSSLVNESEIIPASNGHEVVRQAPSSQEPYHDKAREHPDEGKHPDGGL
conductin amino acids Ala342-Arg465 fused to Lex-A (vector BTM 116), sequence (P0A7C2 other isoform, or with tags, fused parts or gaps limits assumed, form in doubt): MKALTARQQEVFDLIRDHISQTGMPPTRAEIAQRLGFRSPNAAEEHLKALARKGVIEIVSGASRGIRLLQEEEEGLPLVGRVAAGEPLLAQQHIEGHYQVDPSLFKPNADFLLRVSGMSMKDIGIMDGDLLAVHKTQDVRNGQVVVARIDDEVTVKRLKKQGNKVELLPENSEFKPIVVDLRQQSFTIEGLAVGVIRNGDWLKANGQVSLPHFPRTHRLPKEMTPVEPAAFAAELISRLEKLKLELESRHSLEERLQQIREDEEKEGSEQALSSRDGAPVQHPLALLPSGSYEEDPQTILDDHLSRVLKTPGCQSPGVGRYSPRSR
T2 sequence (P09803 773-884): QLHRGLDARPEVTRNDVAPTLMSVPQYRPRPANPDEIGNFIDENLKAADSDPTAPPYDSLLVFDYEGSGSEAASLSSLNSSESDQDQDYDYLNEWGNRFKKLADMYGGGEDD
T4 sequence (O88566 343-465 limits assumed): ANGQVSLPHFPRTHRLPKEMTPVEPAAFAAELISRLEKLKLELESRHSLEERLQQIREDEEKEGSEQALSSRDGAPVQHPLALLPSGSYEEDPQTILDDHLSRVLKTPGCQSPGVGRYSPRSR
human APC amino acids His1012-Glu1215 (APC 15 amino acid repeats) fused to Lex-A (vector BTM 116) (human), sequence (P0A7C2 other isoform, or with tags, fused parts or gaps limits assumed, form in doubt): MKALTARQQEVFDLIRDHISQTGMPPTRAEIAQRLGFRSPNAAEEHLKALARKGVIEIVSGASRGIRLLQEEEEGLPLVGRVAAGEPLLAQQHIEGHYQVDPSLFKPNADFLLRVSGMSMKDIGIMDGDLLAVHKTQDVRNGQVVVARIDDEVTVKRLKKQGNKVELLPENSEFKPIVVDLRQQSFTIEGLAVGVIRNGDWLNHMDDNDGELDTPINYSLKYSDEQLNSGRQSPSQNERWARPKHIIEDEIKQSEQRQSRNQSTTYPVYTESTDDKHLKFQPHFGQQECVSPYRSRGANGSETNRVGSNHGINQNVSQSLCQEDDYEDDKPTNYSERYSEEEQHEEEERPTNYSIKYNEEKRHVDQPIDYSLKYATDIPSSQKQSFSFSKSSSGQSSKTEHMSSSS
human APC amino acids Ser1259-Asp1400 (APC 20 amino acid repeats) fused to Lex-A (vector BTM 116) (human), sequence (P0A7C2 other isoform, or with tags, fused parts or gaps limits assumed, form in doubt): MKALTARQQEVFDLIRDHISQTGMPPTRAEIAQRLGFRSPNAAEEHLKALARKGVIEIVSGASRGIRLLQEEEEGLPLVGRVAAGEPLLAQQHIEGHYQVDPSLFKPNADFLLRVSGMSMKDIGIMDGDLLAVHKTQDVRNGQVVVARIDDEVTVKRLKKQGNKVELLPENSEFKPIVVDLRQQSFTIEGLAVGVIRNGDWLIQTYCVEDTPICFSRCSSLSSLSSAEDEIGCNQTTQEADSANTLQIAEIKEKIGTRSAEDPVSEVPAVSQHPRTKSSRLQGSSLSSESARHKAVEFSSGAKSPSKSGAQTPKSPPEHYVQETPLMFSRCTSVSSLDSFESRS
T1 sequence (P0A7C2 other isoform, or with tags, fused parts or gaps limits assumed): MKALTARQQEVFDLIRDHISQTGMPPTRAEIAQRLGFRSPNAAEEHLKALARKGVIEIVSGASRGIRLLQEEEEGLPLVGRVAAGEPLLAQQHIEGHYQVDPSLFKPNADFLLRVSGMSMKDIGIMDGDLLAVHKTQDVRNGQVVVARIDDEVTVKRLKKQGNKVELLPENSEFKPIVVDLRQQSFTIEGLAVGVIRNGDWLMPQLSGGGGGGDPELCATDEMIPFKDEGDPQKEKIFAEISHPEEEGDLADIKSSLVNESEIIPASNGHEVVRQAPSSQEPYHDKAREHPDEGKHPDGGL

Regarding “human β-catenin (Leu218-Leu781) mutant Phe 253 to alanine, Gal-4 activation domain fusion (from UniProt P35222 218-781)”, the share of the interaction with wild type β-catenin in percent in test [1] was found to be 17%; in test [2] it was 40%.
With “human β-catenin (Leu218-Leu781) mutant Lys 435 to alanine, Gal-4 activation domain fusion (from UniProt P35222 218-781)”, the share of the interaction with wild type β-catenin in percent was found to be 42% in test [1] and 30% in test [3].
Turning to “human β-catenin (Leu218-Leu781) mutant Trp 383 to alanine, Gal-4 activation domain fusion (from UniProt P35222 218-781)”, the share of the interaction with wild type β-catenin in percent amounted to 59% in [3] and 0% in [2].
In the case of “human β-catenin (Leu218-Leu781) mutant Lys 292 to alanine, Gal-4 activation domain fusion (from UniProt P35222 218-781)”, the share of the interaction with wild type β-catenin in percent came out at 5% in test [1] and 28% in test [2].
On the same counts, the results for “human β-catenin (Leu218-Leu781) mutant Trp 338 to alanine, Gal-4 activation domain fusion (from UniProt P35222 218-781)” are 20% and 55%.

B1: human β-catenin (Leu218-Leu781) mutant Arg 386 to alanine, Gal-4 activation domain fusion (other, not shown: large carriers; small tags and cut ends)
chain: LHNLSHHREGLLAIFKSGGIPALVKMLGSPVDSVLFYAITTLHNLLLHQEGAKMAVRLAGGLQKMVALLNKTNVKFLAITTDCLQILAYGNQESKLIILASGGPQALVNIMRTYTYEKLLWTTSRVLKVLSVCSSNKPAIVEAGGMQALGLHLTDPSQRLVQNCLWTLANLSDAATKQEGMEGLLGTLVQLLGSDDINVVTCAAGILSNLTCNNYKNKMMVCQVGGIEALVRTVLRAGDREDITEPAICALRHLTSRHQEAEMAQNAVRLHYGLPVVVKLLHPPSHWPLIKATVGLIRNLALCPANHAPLREQGAIPRLVQLLVRAHQDTQRRTSMGGTQQQFVEGVRMEEIVEGCTGALHILARDVHNRIVIRGLNTIPLFVQLLYSPIENIQRVAAGVLCELAQDKEAAEAIEAEGATAPLTELLHSRNEGVATYAAAVLFRMSEDKPQDYKKRLSVELTSSLFRTEPMAWNETADLGLDIGAQGEPLGYRQDDPSYRSFHSGGYGQDALGMDPMMEHEMGGHHPGADYPVDGLPDLGHAQDLMDGLPPGDSNQLAWFDTDL
Consider B1, for which the “share of the interaction with wild type β-catenin in percent” value was found to be 35% in test [4], 45% in test [1] and 12% in [3].

B2: Lys 292: human β-catenin mutant, Lys 292 substituted by alanine (arm 4) (protein)
chain: B1 chain with K75A, A169R
modifications: left off: large carriers; small tags and cut ends
For B2, the “Interaction With E-Cadherin, share of wild type β-catenin interaction” value (“Interaction With E-Cadherin, share” below) in [5] was “— (Interactions marked by — correspond to 60–100% of the wild type interaction)”. The “Interaction With APC-20, share of wild type β-catenin interaction” value (“Interaction With APC-20, share” below) in [6] was 28%. For the same molecule, the “Interaction With Conductin, share of wild type β-catenin interaction” value (“Interaction With Conductin, share” below) in test [7] was determined as 5%. Further, the “Interaction With APC-15, share of wild type β-catenin interaction” value (shortened to “Interaction With APC-15, share”) in test [8] was “— (Interactions marked by — correspond to 60–100% of the wild type interaction)”. For the same molecule, in test [9], the “Interaction With LEF-1, share of wild type β-catenin interaction” value (from here on “Interaction With LEF-1, share”) is “— (Interactions marked by — correspond to 60–100% of the wild type interaction)”.

B3: Arg 457: human β-catenin mutant, Arg 457 substituted by alanine (arm 8) (protein)
chain: B1 chain with A169R, R240A
modifications: left off: large carriers; small tags and cut ends
In the case of B3, the “Interaction With E-Cadherin, share” value in test [5] is on record as “— (Interactions marked by — correspond to 60–100% of the wild type interaction)”. Also, the “Interaction With APC-20, share” value in test [6] was “— (Interactions marked by — correspond to 60–100% of the wild type interaction)”. Also, the “Interaction With Conductin, share” value in [7] was found to be 36%. For the same molecule, the “Interaction With APC-15, share” value in test [8] is given as “— (Interactions marked by — correspond to 60–100% of the wild type interaction)”. The “Interaction With LEF-1, share” value in test [9] is “— (Interactions marked by — correspond to 60–100% of the wild type interaction)”.

B4: Lys 394: human β-catenin mutant, Lys 394 substituted by alanine (arm 7) (protein)
chain: B1 chain with A169R, K177A
modifications: left off: large carriers; small tags and cut ends
Consider B4, for which the “Interaction With E-Cadherin, share” value in [5] was “— (Interactions marked by — correspond to 60–100% of the wild type interaction)”. Moreover, the “Interaction With APC-20, share” value in [6] was “— (Interactions marked by — correspond to 60–100% of the wild type interaction)”. The “Interaction With Conductin, share” value in test [7] is 42%. Moreover, in [8], the “Interaction With APC-15, share” value is “— (Interactions marked by — correspond to 60–100% of the wild type interaction)”. The “Interaction With LEF-1, share” value in test [9] is listed as “— (Interactions marked by — correspond to 60–100% of the wild type interaction)”.
